One block for each binder: values may come before it.
Legend:
human serum albumin [1] = biological target: T1, human serum albumin (human, UniProt P02768 25-609); assay: SPR, Biacore T100; sample captured by anti-human CH1 antibody, HSA as analyte, 1:1 fit
T1 construct: Bought protein; also called HSA
Experimental: (§1) Covalent immobilisation of the capture antibody was achieved by standard amine coupling chemistry.
(§2) After each cycle, the capture surface was regenerated with 2×1 min injections of 40 mM HCl followed by 30 s of 5 mM NaOH. The flow rates used were 10 μl/min for capture, 30 μl/min for association and dissociation phases, and 10 μl/min for regeneration.
(§3) Kinetic parameters were determined by simultaneous global-fitting of the resulting sensorgrams to a standard 1:1 binding model using Biacore T100 Evaluation Software v2.0.1.

IL-6 [2] = biological target: T2, IL-6 (UniProt P05231 30-212, limits assumed); assay: SPR, Biacore T100; sample captured by anti-human CH1 antibody, IL-6 as analyte
Experimental: as §1, §2
(§4) A blank flow-cell was used for reference subtraction and buffer-blank injections were included to subtract instrument noise and drift.

human serum albumin [3] = biological target: T1, human serum albumin; assay: SPR, Biacore T100; sample captured by anti-human CH1 antibody, HSA as analyte
Experimental: as §1, §2, §4

IL-6 [4] = biological target: T2, IL-6; assay: SPR, Biacore T100; sample captured by anti-human CH1 antibody, IL-6 as analyte, 1:1 fit
Experimental: as §1, §4, §3

TNF = biological target: T3, TNF (human, UniProt P01375 77-233); assay: SPR, Biacore 3000; sample captured by anti-human CH1 antibody, TNF as analyte
T3 construct: also called TNF (Strathmann hTNFa); hTNFa
Experimental: as §1, §2
Kinetic parameters were determined by simultaneous global-fitting of the resulting sensorgrams to a standard 1:1 binding model using Biacore 3000 Evaluation Software v3.2

Ox40/mFc = biological target: T4, Ox40/mFc (UniProt P43489 29-214); assay: SPR, Biacore 3000; construct captured by anti-human CH1 antibody, 20 nM Ox40/mFc alone
T4 construct: Bought fusion protein; also called Ox40/mFc (AXXORA 1588)
T4 sequence (looked up): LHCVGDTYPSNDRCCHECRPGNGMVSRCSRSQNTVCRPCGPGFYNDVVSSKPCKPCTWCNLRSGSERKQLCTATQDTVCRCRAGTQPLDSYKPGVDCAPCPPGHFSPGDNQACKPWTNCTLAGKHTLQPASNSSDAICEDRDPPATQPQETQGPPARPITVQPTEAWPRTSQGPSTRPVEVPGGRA
Experimental: as §1, §2

human serum albumin [5] = biological target: T1, human serum albumin; assay: SPR, Biacore 3000; construct captured by anti-human CH1 antibody, 50 nM HSA alone
Experimental: as §1, §2

B1: A26Fab 645Fv 2G4S 1189Fv (other)
heavy: EVQLVESGGGLVQPGGSLRLSCAASGFTFTNYGIHWIRQAPGKGLEWVASISPSGGLTYYRDSVKGRFTISRDDAKNSPYLQMNSLRAEDTAVYYCATGGEGIFDYWGQGTLVTVSSASTKGPSVFPLAPSSKSTSGGTAALGCLVKDYFPEPVTVSWNSGALTSGVHTFPAVLQSSGLYSLSSVVTVPSSSLGTQTYICNVNHKPSNTKVDKKVEPKSCSGGGGSGGGGSGGGGSEVQLLESGGGLVQPGGSLRLSCAVSGIDLSNYAINWVRQAPGKCLEWIGIIWASGTTFYATWAKGRFTISRDSTTVYLQMNSLRAEDTAVYYCARTVPGYSTAPYFDLWGQGTLVTVSSGGGGSGGGGSEVQLVESGGGLVQPGGSLRLSCAASGFTFNDYDMAWVRQAPGKCLEWVASITPSGGGTYYRDSVKGRFTISRDNAKNSLYLQMNSLRAEDTAVYYCARHGYTLDYFEYWGQGTMVTVSS
light: DIQMTQSPSSLSASVGDRVTITCRATQSIYNALAWYQQKPGKAPKLLIYNANTLHTGVPSRFSASGSGTDSTLTISSLQPEDFATYYCQQYYDYPLTFGGGTKVEIKRTVAAPSVFIFPPSDEQLKSGTASVVCLLNNFYPREAKVQWKVDNALQSGNSQESVTEQDSKDSTYSLSSTLTLSKADYEKHKVYACEVTHQGLSSPVTKSFNRGECSGGGGSGGGGSGGGGSDIVMTQSPSSVSASVGDRVTITCQSSPSVWSNFLSWYQQKPGKAPKLLIYEASKLTSGVPSRFKGSGSGTDFTLTISSLQPEDFATYYCGGGYSSISDTTFGCGTKVEIKGGGGSGGGGSDIQMTQSPSSLSASVGDRVTITCLASEGISNDLAWYQQKPGKAPKLLIYDATRLQDGVPSRFSGSGSGTDFTLTISSLQPEDFATYYCQQSYKYPWTFGCGTKLEIK
notes: Trispecific Fab-Fv-Fv (OX40, HSA, IL-6); second linker 2xG4S; HEK293 supernatant; also called A26Fab-645Fv-1189Fv; FabFvFv
Kd (human serum albumin [1]): 11.6 nM | koff (human serum albumin [1]): 0.000389 s⁻¹ | kon (human serum albumin [1]): 33700 M⁻¹ s⁻¹ | Stoichiometry (IL-6 [2]): 0.47 | Stoichiometry (human serum albumin [3]): 0.4 | Kd (IL-6 [4]): 0.78 nM | koff (IL-6 [4]): 0.000747 s⁻¹ | kon (IL-6 [4]): 959000 M⁻¹ s⁻¹

B2: A26Fab 645Fv 3G4S 1189Fv (other)
heavy: EVQLVESGGGLVQPGGSLRLSCAASGFTFTNYGIHWIRQAPGKGLEWVASISPSGGLTYYRDSVKGRFTISRDDAKNSPYLQMNSLRAEDTAVYYCATGGEGIFDYWGQGTLVTVSSASTKGPSVFPLAPSSKSTSGGTAALGCLVKDYFPEPVTVSWNSGALTSGVHTFPAVLQSSGLYSLSSVVTVPSSSLGTQTYICNVNHKPSNTKVDKKVEPKSCSGGGGSGGGGSGGGGSEVQLLESGGGLVQPGGSLRLSCAVSGIDLSNYAINWVRQAPGKCLEWIGIIWASGTTFYATWAKGRFTISRDSTTVYLQMNSLRAEDTAVYYCARTVPGYSTAPYFDLWGQGTLVTVSSGGGGSGGGGSGGGGSEVQLVESGGGLVQPGGSLRLSCAASGFTFNDYDMAWVRQAPGKCLEWVASITPSGGGTYYRDSVKGRFTISRDNAKNSLYLQMNSLRAEDTAVYYCARHGYTLDYFEYWGQGTMVTVSS
light: DIQMTQSPSSLSASVGDRVTITCRATQSIYNALAWYQQKPGKAPKLLIYNANTLHTGVPSRFSASGSGTDSTLTISSLQPEDFATYYCQQYYDYPLTFGGGTKVEIKRTVAAPSVFIFPPSDEQLKSGTASVVCLLNNFYPREAKVQWKVDNALQSGNSQESVTEQDSKDSTYSLSSTLTLSKADYEKHKVYACEVTHQGLSSPVTKSFNRGECSGGGGSGGGGSGGGGSDIVMTQSPSSVSASVGDRVTITCQSSPSVWSNFLSWYQQKPGKAPKLLIYEASKLTSGVPSRFKGSGSGTDFTLTISSLQPEDFATYYCGGGYSSISDTTFGCGTKVEIKGGGGSGGGGSGGGGSDIQMTQSPSSLSASVGDRVTITCLASEGISNDLAWYQQKPGKAPKLLIYDATRLQDGVPSRFSGSGSGTDFTLTISSLQPEDFATYYCQQSYKYPWTFGCGTKLEIK
notes: Trispecific Fab-Fv-Fv (OX40, HSA, IL-6); second linker 3xG4S; HEK293 supernatant; also called A26Fab-645Fv-1189Fv; FabFvFv
Kd (human serum albumin [1]): 11.6 nM | koff (human serum albumin [1]): 0.000392 s⁻¹ | kon (human serum albumin [1]): 33800 M⁻¹ s⁻¹ | Stoichiometry (IL-6 [2]): 0.68 | Stoichiometry (human serum albumin [3]): 0.39 | Kd (IL-6 [4]): 0.84 nM | koff (IL-6 [4]): 0.000737 s⁻¹ | kon (IL-6 [4]): 874000 M⁻¹ s⁻¹

B3: A26Fab 645Fv 4G4S 1189Fv (other)
heavy: EVQLVESGGGLVQPGGSLRLSCAASGFTFTNYGIHWIRQAPGKGLEWVASISPSGGLTYYRDSVKGRFTISRDDAKNSPYLQMNSLRAEDTAVYYCATGGEGIFDYWGQGTLVTVSSASTKGPSVFPLAPSSKSTSGGTAALGCLVKDYFPEPVTVSWNSGALTSGVHTFPAVLQSSGLYSLSSVVTVPSSSLGTQTYICNVNHKPSNTKVDKKVEPKSCSGGGGSGGGGSGGGGSEVQLLESGGGLVQPGGSLRLSCAVSGIDLSNYAINWVRQAPGKCLEWIGIIWASGTTFYATWAKGRFTISRDSTTVYLQMNSLRAEDTAVYYCARTVPGYSTAPYFDLWGQGTLVTVSSGGGGSGGGGSGGGGSGGGGSEVQLVESGGGLVQPGGSLRLSCAASGFTFNDYDMAWVRQAPGKCLEWVASITPSGGGTYYRDSVKGRFTISRDNAKNSLYLQMNSLRAEDTAVYYCARHGYTLDYFEYWGQGTMVTVSS
light: DIQMTQSPSSLSASVGDRVTITCRATQSIYNALAWYQQKPGKAPKLLIYNANTLHTGVPSRFSASGSGTDSTLTISSLQPEDFATYYCQQYYDYPLTFGGGTKVEIKRTVAAPSVFIFPPSDEQLKSGTASVVCLLNNFYPREAKVQWKVDNALQSGNSQESVTEQDSKDSTYSLSSTLTLSKADYEKHKVYACEVTHQGLSSPVTKSFNRGECSGGGGSGGGGSGGGGSDIVMTQSPSSVSASVGDRVTITCQSSPSVWSNFLSWYQQKPGKAPKLLIYEASKLTSGVPSRFKGSGSGTDFTLTISSLQPEDFATYYCGGGYSSISDTTFGCGTKVEIKGGGGSGGGGSGGGGSGGGGSDIQMTQSPSSLSASVGDRVTITCLASEGISNDLAWYQQKPGKAPKLLIYDATRLQDGVPSRFSGSGSGTDFTLTISSLQPEDFATYYCQQSYKYPWTFGCGTKLEIK
notes: Trispecific Fab-Fv-Fv (OX40, HSA, IL-6); second linker 4xG4S; HEK293 supernatant; also called A26Fab-645Fv-1189Fv; FabFvFv
Kd (human serum albumin [1]): 11.7 nM | koff (human serum albumin [1]): 0.000396 s⁻¹ | kon (human serum albumin [1]): 33900 M⁻¹ s⁻¹ | Stoichiometry (IL-6 [2]): 0.66 | Stoichiometry (human serum albumin [3]): 0.4 | Kd (IL-6 [4]): 0.52 nM | koff (IL-6 [4]): 0.000729 s⁻¹ | kon (IL-6 [4]): 1.41e+06 M⁻¹ s⁻¹

Other lines, results leading:

Kd (human serum albumin [1]): 12.2 nM | koff (human serum albumin [1]): 0.000393 s⁻¹ | kon (human serum albumin [1]): 32400 M⁻¹ s⁻¹ | Stoichiometry (IL-6 [2]): 0.69 | Stoichiometry (human serum albumin [3]): 0.39 | Kd (IL-6 [4]): 0.48 nM | koff (IL-6 [4]): 0.000768 s⁻¹ | kon (IL-6 [4]): 1.61e+06 M⁻¹ s⁻¹
B4: A26Fab 645Fv 5G4S 1189Fv (other)
heavy: EVQLVESGGGLVQPGGSLRLSCAASGFTFTNYGIHWIRQAPGKGLEWVASISPSGGLTYYRDSVKGRFTISRDDAKNSPYLQMNSLRAEDTAVYYCATGGEGIFDYWGQGTLVTVSSASTKGPSVFPLAPSSKSTSGGTAALGCLVKDYFPEPVTVSWNSGALTSGVHTFPAVLQSSGLYSLSSVVTVPSSSLGTQTYICNVNHKPSNTKVDKKVEPKSCSGGGGSGGGGSGGGGSEVQLLESGGGLVQPGGSLRLSCAVSGIDLSNYAINWVRQAPGKCLEWIGIIWASGTTFYATWAKGRFTISRDSTTVYLQMNSLRAEDTAVYYCARTVPGYSTAPYFDLWGQGTLVTVSSGGGGSGGGGSGGGGSGGGGSGGGGSEVQLVESGGGLVQPGGSLRLSCAASGFTFNDYDMAWVRQAPGKCLEWVASITPSGGGTYYRDSVKGRFTISRDNAKNSLYLQMNSLRAEDTAVYYCARHGYTLDYFEYWGQGTMVTVSS
light: DIQMTQSPSSLSASVGDRVTITCRATQSIYNALAWYQQKPGKAPKLLIYNANTLHTGVPSRFSASGSGTDSTLTISSLQPEDFATYYCQQYYDYPLTFGGGTKVEIKRTVAAPSVFIFPPSDEQLKSGTASVVCLLNNFYPREAKVQWKVDNALQSGNSQESVTEQDSKDSTYSLSSTLTLSKADYEKHKVYACEVTHQGLSSPVTKSFNRGECSGGGGSGGGGSGGGGSDIVMTQSPSSVSASVGDRVTITCQSSPSVWSNFLSWYQQKPGKAPKLLIYEASKLTSGVPSRFKGSGSGTDFTLTISSLQPEDFATYYCGGGYSSISDTTFGCGTKVEIKGGGGSGGGGSGGGGSGGGGSGGGGSDIQMTQSPSSLSASVGDRVTITCLASEGISNDLAWYQQKPGKAPKLLIYDATRLQDGVPSRFSGSGSGTDFTLTISSLQPEDFATYYCQQSYKYPWTFGCGTKLEIK
notes: Trispecific Fab-Fv-Fv (OX40, HSA, IL-6); second linker 5xG4S; HEK293 supernatant; also called A26Fab-645Fv-1189Fv; FabFvFv

Affinity (fold loss against the parent) (TNF): 2 fold | Stoichiometry (TNF): 0.42 | Response RU (Ox40/mFc): 32 RU | Response RU (human serum albumin [5]): 10 RU
B5: A26Fab-(3xG4S)-645dsFv-(3xG4S)-870dsFv (other)
heavy: EVQLVESGGGLVQPGGSLRLSCAASGFTFTNYGIHWIRQAPGKGLEWVASISPSGGLTYYRDSVKGRFTISRDDAKNSPYLQMNSLRAEDTAVYYCATGGEGIFDYWGQGTLVTVSSASTKGPSVFPLAPSSKSTSGGTAALGCLVKDYFPEPVTVSWNSGALTSGVHTFPAVLQSSGLYSLSSVVTVPSSSLGTQTYICNVNHKPSNTKVDKKVEPKSCSGGGGSGGGGSGGGGSEVQLLESGGGLVQPGGSLRLSCAVSGIDLSNYAINWVRQAPGKCLEWIGIIWASGTTFYATWAKGRFTISRDSTTVYLQMNSLRAEDTAVYYCARTVPGYSTAPYFDLWGQGTLVTVSSGGGGSGGGGSGGGGSEVQLVESGGGLVQPGGSLRLSCAASGYVFTDYGMNWVRQAPGKCLEWMGWINTYIGEPIYADSVKGRFTFSLDTSKSTAYLQMNSLRAEDTAVYYCARGYRSYAMDYWGQGTLVTVSS
light: DIQMTQSPSSLSASVGDRVTITCRATQSIYNALAWYQQKPGKAPKLLIYNANTLHTGVPSRFSASGSGTDSTLTISSLQPEDFATYYCQQYYDYPLTFGGGTKVEIKRTVAAPSVFIFPPSDEQLKSGTASVVCLLNNFYPREAKVQWKVDNALQSGNSQESVTEQDSKDSTYSLSSTLTLSKADYEKHKVYACEVTHQGLSSPVTKSFNRGECSGGGGSGGGGSGGGGSDIVMTQSPSSVSASVGDRVTITCQSSPSVWSNFLSWYQQKPGKAPKLLIYEASKLTSGVPSRFKGSGSGTDFTLTISSLQPEDFATYYCGGGYSSISDTTFGCGTKVEIKGGGGSGGGGSGGGGSDIQMTQSPSSLSASVGDRVTITCKASQNVGTNVAWYQQKPGKAPKALIYSASFLYSGVPYRFSGSGSGTDFTLTISSLQPEDFATYYCQQYNIYPLTFGCGTKVEIKR
notes: Trispecific Fab-Fv-Fv (OX40, HSA, TNF); terminal 870 Fv with a disulfide (+DS read as dsFv); HEK293 supernatant; also called A26-645-870+DS; A26Fab-645Fv-652/870Fv

Reference: patent US20130053549A1 (UCB, published 2013)
